This data set addresses enzyme recognising antibody fragments.

B1: Human Gastric Lipase (protein)
chain: LFGKLHPGSPEVTMNISQMITYWGYPNEEYEVVTEDGYILEVNRIPYGKKNSGNTGQRPVVFLQHGLLASATNWISNLPNNSLAFILADAGYDVWLGNSRGNTWARRNLYYSPDSVEFWAFSFDEMAKYDLPATIDFIVKKTGQKQLHYVGHSQGTTIGFIAFSTNPSLAKRIKTFYALAPVATVKYTKSLINKLRFVPQSLFKFIFGDKIFYPHNFFDQFLATEVCSREMLNLLCSNALFIICGFDSKNFNTSRLDVYLSHNPAGTSVQNMFHWTQAVKSGKFQAYDWGSPVQNRMHYDQSQPPYYNVTAMNVPIAVWNGGKDLLADPQDVGLLLPKLPNLIYHKEIPFYNHLDFIWAMDAPQEVYNDIVSMISEDKK
B1: the “enzyme activity assay (DGGR substrate)” value was “Approximately 30 to 60% of the enzyme recognising antibody fragments showed to inhibit the enzyme”.

For the origin of these results see US7361741.
